Results on 47 sequences are retold here after the NTF2 design screens of Basanta et al. (2020).

A short description of this series: protease stability score; higher = more stable; yeast display proteolysis, trypsin and chymotrypsin.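 Further: log10 excess protease needed over predicted unfolded state with 0 meaning unfolded.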
In turn, “DEEQRKRMAEKFRNAIQRNDDDKIRELAPPDVSARYGDKEVHGREELLKYIDRLHKEADRIDVHDLHVKGETIILTLVVNINGHNHRYNFVAHIHDGRMHRMKVESR” showed a protease stability score of 1.21. The value for “DEEQRLKQVFDTLVKAFEDNDEDQIRDMMDPNVTVRVGDKEVHGRDEVARRVVDERRKVDHVHNDIKDYRVRGNHLVMKIDQVFNHNGETRKQTATMVVKVHDGRAVVETLHYD” was 1.09; that for “DEEQRRMVQELFKALQHGDPDKVEELVDPNAQLHYGDKTVTGREEMHRWIEHLLDKIRIHFQRVSVRSRNGRAIAHATVEVVFNGKPDTVTFDLEANVHNGKFRRIVLRFPEEAQKKLKR” was 1.48. The value for “DEEQTLRERFNTLKRAQDHNDEEDLRRMMDENVKVRIGDEDVHGRETANEQFARMLRRVDHVRLRLKTMHVHGEKYQFRFELQLTVNGRHEHRDVRIRFDNVNGRTNIVEMEVG” was 0.35. In the case of “DEEQVEHAMNRLVQALRSGDEKKLLDLAPEDVKMRIGDREFHGREDFEKAVKEFVDRVDHFQFEDVSIRGDDIFIHVWNQVNGRRHKQVITVKAHNGRMKHMVLDTP” it was 0.983. In turn, “DEEQVEHMRRIVQEGDFDELKDNADPNARVQVGDKRYHGREQVQHVMKNFRDKADHVEISSIKQDEDHVSAEMHVEVNGERFVIRIHFVVHNGRLEQINIQVTSERDQKKLKKMLD” showed a protease stability score of 0.185. In the case of “DEEQVKKVLETLVKALQKGNIEEILKMLKEDVEFVLIDEKYQGREDAKKIVKQLVDQGMEVHFDRHEVTGNQAHVQTRWHYGNKEAHAEVTYYVKGDTVDKVDIQWSETAKKAVKEG” it was 1.13; in that of “DEEQVKKVVEELLKAVHNGNVDQIKKIVKENVEFTLGDKTMKGQEDVEKDVKQLHDKGADFKVDEVEVTGDHATANTKWQIGDQKAHVQVHYQVRDDTVERVEVRWSEDAKKAIKQG”, -0.141. In the case of “DEEQVKKVVKVLMEYFKRGDVDQIVRMIDEDVEFKLLDEKKKGQEQVKTVIKKLHDQGAEVHVDHAEVEGDKATVDTRWHIGDHTMEATVEYYVEGDRVKKVKVQWSEEAKKALHAG” it was 1.06; in that of “DEEQVNKVRTLVESNDEKTMQELADPNAKAEIGNKRFHGMHRAAHVLTKLRKQADTVRYREIDVHNGQVHAHFSMHFNGKRIDARVVLKVRNGRLRHMKIEATDPHLEEELERQVQ”, 0.268; in that of “DEEQVQKVVDKLIKAVQNGNRKQIVDLVKENVEFTLADETYKGKDDVQTVIKRLHEVGAEVHVDRYDVRGDTAHADTRWHMDDQEMHVTVEYVVRGDRVEQVHVQWSEEAKKVHKKG”, -0.044. In the case of “DEEQVREAMEIVKHGDPDKFRKQADKDVRLTIGDTEYHGREDVMTVLVSFLRTVDHLNIKSVDVRGDKAVINADFNYNGKEININIHLEFHNGRLKSVQIQATNREDQKDLKRIIK” it was 1.28. As to “DEEQVRKMLETILKMMVNGNLEEVKKVLKPNVDYQLGDEKLQGQQVAERADKYIKKVGVRAEIKRAKVEGDTAELDYEFTADGRTVRVTVQAHAKDGRLDQWRVEVSDTAKKIRQKG”, the protease stability score was 0.736. “DEEQVRKVVEQLLKMLQNKNTEEIVKLVKEDATFTLGDETRRGQEDVRKLVQRLKEQGAEFHTHEVRVKGGEAKAKTQWHVANREVHAEVKYVVRGDKVEKVEVRWSEEAKKALKEG” displayed a protease stability score of -0.071. The value for “DEEQVTKAKNLLENWKTNNPEEVKKLADPNARAQIGDQVIHGMDKYVTFLHKQRSKMRFELHIRSMTADNGRVKMTFDHVVDHNGRPDKNDARMSVQFENGKIKELVIQKDK” was -0.295; that for “DEERAAHNALRALEAMLTGDEKKADELADKDVRVNVGDRVYDGDEKMQKFVRELRKRYDHFHFRTYSHDGDKVKANVILNVNGRNVEIIFYLHAHNGKLKSVRVEVRNPELLKNLTS” was 1.23; that for “DEERADELVELLTNNNFQSLADNADPNASIEYGDKTIRGRDEANKFLQNIERRADHVEIKSLKTKGNKIDIDLVVHVNGQKLRFKVEIKLRNGKVTHIRIQATSERDQRKFLEVVG” was 1.06. The value for “DEERAKQLMEKAFKMIRNGNEEVVRKMLKPNGRYEYIDKKFEGEEAAKFVVQLVQKVGAEDKVKRKEVKGDTAKMDFDYHKGDKTVRTTAEVIYKGDKMEQARVELTDEVKKIVHQG” was 0.046. The value for “DEERAKQVADKVFKYAINGDEEKMQKQLDPNVEYKYADTEYEGEDAARAIVRLVKQVGMEVKTQRQEVKGNTMQADFRYHNGDKEVQTTARVEYEGDKVKKVEVKVTDEVKKEAHKG” was -0.068; that for “DEERAMKDAVDRMEKNVKNGNFDKMMNLADKDAKVVVGDDTYRGRDNNVKKNKEDKEEFDHAEVRFKEVEVENGRISIHADITLNVNGQDVTRRFNFELRNHNGTALIVRLTLK” was 0.188. Regarding “DEERAQHLVDQIFRAFKRGDPEQFKKMFDPNARMHVGDQRYHGREDIIKFLQEIREQADTITLRKVTVHNGQADIIVDVQVDGRRVRIQILINYHNGKVKSLKIHYTDEELQKEIES”, the protease stability score stood at 1.56. “DEERDERVATKVAEAMATGDPEKVMEQAPPNAEMRIGDKHFTGEEHIKQALLEWKRDADHIQVDHVSVQNGRAHMDMQFTINGRKRRYTLRVEVHNGKAKTVSVREP”: the protease stability score was 0.315.

“DEERDLDIAVEAAKNLLTGNEERFSKMAPPDVRIEYGDKTVHGREQANTAVKEFRDRVDHIEIKRIEKDGNKAHIEFIANVNGHRFTVTMVVDVSNGRVNQVDIRARNKEDQEKMKG” showed a protease stability score of 0.06.

The sequence “DEEREAKEWMELFEDQFRQGNEHEVNKLMDKDARIHVGEKHVSGRNQAKKELKEHMKRADHIHIQLHEVDSRPGRMILDFTINQQVNGRRSSDKVRARFSKRNGRWYQESETQG” had a protease stability score of 0.104. The value for “DEEREEQARKLLRAEEQGDPDRAKQMMDPNARVQVGNKRVHGRSEIATQLEKRKRRARYEIKHVTIRARGNRVDVKINVQVVVNGRPHHFTYIMHLTFQGDKAKNATVRIDEDTLRQVDS” was 0.171; that for “DEEREKEFATRIATALRTNDPKKMVKNFDENAKFDVGDNRIKGREELKEWVDELHKEFDHIEIHDVQAHNGRAKINLKLEHNGRDTVLDATVVVENGRAKSAKQDQS” was -0.448. In the case of “DEERELEELMQRLISLMKNGNPKEVAKLLDPNVRVQYGDKRLHGREQAIRRIESLRRHVDHVTMSIESLQVEGDKVSARIEAVYDVNGTQDQRTIELELRQVNGKLRFKHITFK” it was 0.017.

With “DEEREVKKRIKHIIRVLENGDEDRAEELADPNTTARVGDKRVHGMNNYMRELARKARRADHVEVTIKHMDLNGEKFDIRLHIVIHVDGRREKFDLRFVITRQGDKHVAVDVQVS”, the protease stability score was found to be 1.47. As to “DEERKAEEMAKSIIKVWQSGDHHQQQRNADEDVRFEIGDKRINGDHQLEDWVKKIKEQYDHIEVRIKSVTRQGDKLVVIAQVVYNENGHRRQVTVRFVAVDHNGTIVLKRAIYR”, the protease stability score is 0.406.

“DEERKEQLLEIYKAIDTGNPEKVKELADPNAHVQYGDKSVHGMDDAVRQLEKRRKEIRIHWDVKSVHVEGNKVDVVAENEEEHNGHPRSHTVRVNAEFQGDKMKNAHYQSDK” showed a protease stability score of -0.202.

For the sequence “DEERKKQAEHFMRVYQQGNEEELNKLMDPNVKANVGDKEWQGREKMAKDTREKLEHSKLQLHSVSVDAQGNNIRIDVSFVVNHNGEPRRNHQTIIIHIDNGRITRLEVKDTS”, the protease stability score was found to be 0.004. The value for “DEERKKRVEEALRQEQQGNEEDYSELMDENVKITIGDKTIRGSKEAVRHFKEKMTQMRIELRDYRIQVHGNKVSVDLKYVNDHDGQPRHQKATATMDMTNGRVQSREVDNKP” was 0.186; that for “DEERLAKEVNDQYQHIMDTGDPDQARKLFDENARVDIGDKQYHGREEAVEAFQQRMNRVDHIDIKIDEVKVRNGEIDVKFEINQNSNGKNVHRNIRFTMRVNGDKYAIVDMHVQ” was 0.367.

In the case of “DEERLQKIIEKAFKVIQNGNKEEAQKLGKPNVEYHYLDKTLHGPKAVEHAVEHVKKVGAEVKQQEIEVHGGTAKAVFQYHVGDKTVQTTAEVTYEGDKMKKARVKISEEVKKMMHRG”, the protease stability score was -0.076. In the case of “DEERMHQLEKLFRTNNFEEFAKQADKDVTAKVGNETYTGREDMEKFARRLREQVDSIHYDRVEVKGDKFKADAQFDFNGKRVRFTVEVEFHNGKLQHMRMQATTHELEETLAKLLS” it was 1.41; in that of “DEERMHRLKKLFDTNDNEQMSKQASENARMQVGNKVFHGREDIEKFILEERRRADHITYKHVTEHGNKVQAHVVKVVNGRSIDVIFEVEIDNGRIKRMSIQARDSEDQNKAEKALS”, 0.345. The value for “DEERMLKVAETVIRAVRNGNADKAVKYIDEGGEATFGDTKLKGPEHIYEYVKKFKDQGIEVHYKEEHKEGDKVTVHTQAHLGDATADFEVHYQVKGDKLDRMEVRMDKEQLKKFRDS” was -0.347; that for “DEERNEKAAHEMLKVFQRGDPDQFRDLIDPNARANVGDKKYHGRENLTHMFKHFVHRADHLEMQHVKVSGETVEIHIRAKINGKTIDFTIRIIVDNGKAREINFDPDMLKRMRG” was 1.23. In the case of “DEERNELAEHVVKAWHHNDPDRVQKLVDPNVRFEIGDKEVHGREEYARIQRTEKDQWDLQIEVKHITVHNGRVDVDFDWRIERDGRPRTNQQVVIFEVDNGKVKRVSFQERK” it was -0.279; in that of “DEERNERHAQDLMRALENNDEERLRQLLDKDAKLNVGDHEIHGSENIVKRLAEFLKRADHLRFERMTVRGDTVQISFEVEHDGERRKYEVHITVHNGHVQSITIQKQ”, 2.49. With “DEERNKEMKEVLETNDFKDLANQADENAKAQIGDKEYHGREEVRDAMKSLQERIDSVEVRDIHVQGDKFSIEAVMDVDGDKVDVVIEMRVHNGNIKFVRINARNESVKEKVEQVVS”, the protease stability score is 1.79.

On to “DEERQDQAEEFWKILQTGDPDKAREELRDDVHVHVGDKVIHGMEDVDRDIERVRKQIRVEFDVRHIDSQGERISVEANIMENENGKPETAQLTVIIDMHNGRVVRIVFEKRK”, for which the protease stability score stood at 1.96. The value for “DEERQHRVAKSLVDILKDGNPRKMKELMDKDATVRVGDKNIRGRKNIATFWTDVRRRIDHVEIKHVDVRGDKIDMNINFDVNGRHVHYTINARVRNGKLTSMHLDPDNLEHLKE” was 0.591; that for “DEERQKEALKVHKKGDFDKILDQADEDVQVVIGDKKYHGREEATTALKKILDSIDHLKFESITIQNGRVRVDAILEFNGQQNRVIIVVEVHNGKVKKVEIRVTDPSQEDKLKKRVD” was -0.203.

The sequence “DEERQQKVADDLATIMTNGNPDQMLELADKDVKAKYGDTEIHGREKVREYWKTIRDQADHIHIDTFKAENGQVDIQAHAKFNGKDYKFNLRIEFDNGRIKSIVVQEQ” returned a protease stability score of 0.278. In the case of “DEERRDLAHRIFEAWKRNDPDTLRNLIDPNAKMVVGEDVLRGDEQIVKHVQDVHNRINMKIDIKSVRVEGDKVIVHAEVTANVNGRPVRIEVTFVIKNHNGKVKKIVIDVDPRDQRKMDS” it was -0.13; in that of “DEERRKNLAREYNKALTSGDENKVRRLADENVRIEIGDHVVSGRENLSKLVRDDQERVDRFRVQDVHVEGDKIQFDIQVEINGKTINITIEMQLHNGRIKKIKFDPRAVEQLKG”, 0.612.
